Patent publication EP4711384A1 (WIO Bioscience Co., Ltd., dated 2026)
Residue numbers refer to the chain shown, from its start. Where “and” joins values, the source holds several entries; their conditions need not be identical. Identical values can stand only once.

T1: human IL-18R1 and IL-18RAP on IL-18 Reporter HEK 293 Cells (human, UniProt Q13478 19-541; O95256 20-599)
T1 sequence (looked up) 1: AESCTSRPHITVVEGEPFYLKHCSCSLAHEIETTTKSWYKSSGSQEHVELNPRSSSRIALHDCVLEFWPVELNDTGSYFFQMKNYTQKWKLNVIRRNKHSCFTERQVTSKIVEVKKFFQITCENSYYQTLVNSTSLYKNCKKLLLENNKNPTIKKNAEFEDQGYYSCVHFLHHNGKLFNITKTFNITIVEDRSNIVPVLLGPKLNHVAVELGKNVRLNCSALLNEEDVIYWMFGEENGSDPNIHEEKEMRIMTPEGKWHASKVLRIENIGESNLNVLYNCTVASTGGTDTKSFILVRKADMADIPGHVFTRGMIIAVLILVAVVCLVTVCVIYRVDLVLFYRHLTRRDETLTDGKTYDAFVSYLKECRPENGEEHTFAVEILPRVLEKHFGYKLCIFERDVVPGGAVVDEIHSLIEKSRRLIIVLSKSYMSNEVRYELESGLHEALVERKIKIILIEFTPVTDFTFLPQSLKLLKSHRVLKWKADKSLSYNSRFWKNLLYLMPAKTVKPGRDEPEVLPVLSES
T1 sequence (looked up) 2: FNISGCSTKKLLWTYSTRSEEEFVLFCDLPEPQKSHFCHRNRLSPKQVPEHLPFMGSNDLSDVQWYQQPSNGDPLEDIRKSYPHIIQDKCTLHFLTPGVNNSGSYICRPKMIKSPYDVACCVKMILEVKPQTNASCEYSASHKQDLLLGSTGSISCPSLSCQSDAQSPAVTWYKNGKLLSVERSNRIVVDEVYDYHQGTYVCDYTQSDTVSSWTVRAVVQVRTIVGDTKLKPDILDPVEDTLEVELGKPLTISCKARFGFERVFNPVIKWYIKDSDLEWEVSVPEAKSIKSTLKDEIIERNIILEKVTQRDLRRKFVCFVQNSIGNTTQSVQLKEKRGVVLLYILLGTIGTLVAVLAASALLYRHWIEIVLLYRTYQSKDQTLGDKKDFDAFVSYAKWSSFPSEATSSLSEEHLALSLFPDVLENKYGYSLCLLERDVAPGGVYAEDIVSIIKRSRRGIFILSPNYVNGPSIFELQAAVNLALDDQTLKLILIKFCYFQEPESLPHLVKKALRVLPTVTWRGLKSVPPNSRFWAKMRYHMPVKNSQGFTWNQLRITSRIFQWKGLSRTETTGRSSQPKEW

B1: hzWio-02-09 (His form) (bispecific antibody)
chain: EVQLVESGGGLVQPGGSLRLSCAASGSTFDEYDMGWYRQAPGGKCELVSTISTIDASTYYADSVKGRFTISRDNSKNTLYLQMNSLRAEDTAVYYCEADDRGTWDRGGCWGQGTLVTVSSGGGGSEVQLVESGGGLVQPGGSLRLSCAASGFTYIPAYMGWFRQAPGKERERVASIKTDASTTYADSVEGRFTISQDNAKNTLYLQMNSLRPEDTAVYYCAAYQFGAFRVWGQGTLVTVSSHHHHHH
B2: hzWio-02-05-His (bispecific antibody)
chain: EVQLVESGGGLVQPGGSLRLSCAASGNLYRDPCMGWFRQAPGKDREGVAAMNTGADSTFYARSVKGRFTISRDNAKNTLYLQMNSLRAEDTAVYYCAASRYCTERTYTWRYDYDYWGQGTLVTVSSGGGGSEVQLVESGGGLVQPGGSLRLSCAASGFTYIPAYMGWFRQAPGKERERVASISSTEGSTTYADSVKGRFTISQDNSKNTLYLQMNSLRPEDTAVYYCAAYQFGAFRVWGQGTLVTVSSHHHHHH
B3: hzWio-02-03-His (bispecific antibody)
chain: EVQLVESGGGLVQPGGSLRLSCAASGNLYRDPCMGWFRQAPGKDREGVAAMNTGADSTFYARSVKGRFTISRDNAKNTLYLQMNSLRAEDTAVYYCAASRYCTERTYTWRYDYDYWGQGTLVTVSSGGGGSEVQLVESGGGLVQPGGSLRLSCAASGFTYIPAYMGWFRQAPGKERERVASIKTDASTTYADSVEGRFTISQDNAKNTLYLQMNSLRPEDTAVYYCAAYQFGAFRVWGQGTLVTVSSHHHHHH
B4: hzWio-02-01-Hm1 (bispecific antibody)
chain: EVQLVESGGGLVQPGGSLRLSCAASGHAYDNACMGWFRQAPGKEREGVASIHLRDRTYYADSVKGRFTISRDNSKNTLYLQMNSLRAEDTAVYYCASSNICNALNLQGNTYWGQGTLVTVSSGGGGSEVQLLESGGGLVQPGGSLRLSCAASGYTYGPYCMGWFRQAPGKEREGVAAVGGDARTWYGNSVKGRFTISRDNSKNTLYLQMNSLRAEDTAVYYCAADFDRTVCSDDIYDYTYRGQGTLVTVSSHHHHHH
B5: hzWio-02-01-Hm6 (bispecific antibody)
chain: B4 chain with H27T, A32H
B6: hzWio-02-01-Hm4 (bispecific antibody)
chain: B4 chain with H27T, D30H
B7: hzWio-02-01-Hm16 (bispecific antibody)
chain: B4 chain with H27T, Y58H
B8: hzWio-02-01-Hm25 (bispecific antibody)
chain: B4 chain with H27T, N99H
B9: hzWio-02-01-Hm9 (bispecific antibody)
chain: B4 chain with H27T, S50H
B10: hzWio-02-01-Hm10 (bispecific antibody)
chain: B4 chain with H27T, I51H
B11: hzWio-02-01-Hm24 (bispecific antibody)
chain: B4 chain with H27T, S98H
B12: hzWio-02-01-Hm20 (bispecific antibody)
chain: B4 chain with H27T, S62H
B13: hzWio-02-01-Hm18 (bispecific antibody)
chain: B4 chain with H27T, A60H
B14: hzWio-02-01-Hm3 (bispecific antibody)
chain: B4 chain with H27T, Y29H
B15: hzWio-02-01-Hm5 (bispecific antibody)
chain: B4 chain with H27T, N31H
B16: hzWio-02-01-Hm35 (bispecific antibody)
chain: B4 chain with H27T, T110H
B17: hzWio-02-01-Hm14 (bispecific antibody)
chain: B4 chain with H27T, R56H
B18: hzWio-02-01-Hm12 (bispecific antibody)
chain: B4 chain with H27T, R54H
B19: hzWio-02-01-Hm8 (bispecific antibody)
chain: B4 chain with H27T, G35H
B20: hzWio-02-01-Hm34 (bispecific antibody)
chain: B4 chain with H27T, N109H
B21: hzWio-02-01-Hm7 (bispecific antibody)
chain: B4 chain with H27T, M34H
B22: hzWio-02-01-Hm19 (bispecific antibody)
chain: B4 chain with H27T, D61H
B23: hzWio-02-01-Hm23 (bispecific antibody)
chain: B4 chain with H27T, G65H
B24: hzWio-02-01-Hm31 (bispecific antibody)
chain: B4 chain with H27T, L106H
B25: hzWio-02-01-Hm27 (bispecific antibody)
chain: B4 chain with H27T, N102H
B26: hzWio-02-01-Hm22 (bispecific antibody)
chain: B4 chain with H27T, K64H
B27: hzWio-02-01-Hm13 (bispecific antibody)
chain: B4 chain with H27T, D55H
B28: hzWio-02-01-Hm21 (bispecific antibody)
chain: B4 chain with H27T, V63H
B29: hzWio-02-01-Hm15 (bispecific antibody)
chain: B4 chain with H27T, T57H
B30: hzWio-02-01-Hm17 (bispecific antibody)
chain: B4 chain with H27T, Y59H
B31: hzWio-02-01-Hm30 (bispecific antibody)
chain: B4 chain with H27T, N105H
B32: hzWio-02-01-Hm11 (bispecific antibody)
chain: B4 chain with H27T, L53H
B33: hzWio-02-01-Hm29 (bispecific antibody)
chain: B4 chain with H27T, L104H
B34: hzWio-02-01-Hm26 (bispecific antibody)
chain: B4 chain with H27T, I100H
B35: hzWio-02-01-Hm2 (bispecific antibody)
chain: B4 chain with H27T, A28H
B36: hzWio-02-01-Hm28 (bispecific antibody)
chain: B4 chain with H27T, A103H
B37: hzWio-02-01-Hm33 (bispecific antibody)
chain: B4 chain with H27T, G108H
B38: hzWio-02-01-Hm32 (bispecific antibody)
chain: B4 chain with H27T, Q107H

target: T1, human IL-18R1 and IL-18RAP on IL-18 …; assay: cell-based or functional assay

Row | EC50 [ng/mL] | Top630nm | Binder
1 | 0.668 | 1.88 | B1
2 | 0.201 | 1.72 | B2
3 | 0.394 | 1.82 | B3

target: T1, human IL-18R1 and IL-18RAP on IL-18 …; assay: cell-based or functional assay; remark: another data set of the same source

Row | EC50 | Top530nm | Binder
4 | 1.25 ng/mL | 0.909 | B4
5 | 1.08 ng/mL | 0.894 | B5
6 | 0.941 ng/mL | 1.08 | B6
7 | 1.15 ng/mL | 1.11 | B7
8 | 0.04 ng/mL | 0.738 | B8
9 | 2.14 ng/mL | 0.9 | B9
10 | 1.27 ng/mL | 1.1 | B10
11 | 1.97 ng/mL | 0.774 | B11
12 | 0.582 ng/mL | 2.75 | B12
13 | 0.696 ng/mL | 1.07 | B13
14 | 1.14 ng/mL | 1.08 | B14
15 | 1.11 ng/mL | 1.01 | B15
16 | 6.99 ng/mL | 1.18 | B16
17 | 1.26 ng/mL | 1.25 | B17
18 | 0.68 ng/mL | 1.17 | B18
19 | 1.01 ng/mL | 1.51 | B19
20 | 12.9 ng/mL | 1 | B20
21 | 1.12 ng/mL | 1.03 | B21

Row | EC50 | Top530nm | Binder
22 | 0.84 ng/mL | 0.738 | B22
23 | 0.238 ng/mL | 0.794 | B23
24 | 7.75 ng/mL | 1.05 | B24
25 | 0.433 ng/mL | 0.773 | B25
26 | 0.182 ng/mL | 0.773 | B26
27 | 1.12 ng/mL | 1.22 | B27
28 | 2.12 ng/mL | 1.12 | B28
29 | 1.54 ng/mL | 1.13 | B29
30 | 1.47 ng/mL | 1 | B30
31 | 28.7 ng/mL | 0.349 | B31
32 | 1.42 ng/mL | 1.02 | B32
33 | 0.67 ng/mL and 1.49 ng/mL | – | B33
34 | 0.301 ng/mL | 0.764 | B34
35 | 2.27 ng/mL | 1.1 | B35
36 | 0.42 ng/mL | 0.821 | B36
37 | 19.5 ng/mL | 1.1 | B37
38 | 10.9 ng/mL | 1.09 | B38
